“Also recorded” adds a separate entry of the source. Where no end group is shown, it is not given here.
Tested on: 22Rv.1 xenograft tumor
Experiment: 22Rv.1 tumor xenograft study
Assay type: in vivo, athymic nude mice
Details: for tumor growth inhibition in vivo: xenografts of single 22Rv.1 clones stably expressing the peptide
Method: All animal experiments were performed according to European and German statutory regulations. For generation of xenograft models 5×10^6 LNCaP cells were resuspended in a solution of 50% Matrigel® (BD Bioscience, Heidelberg, Germany) in PBS or 5×10^6 22Rv.1 cells in 100 µl of PBS were subcutaneously injected into both flanks of 6–8 week-old athymic nude mice. Tumor size was measured with a caliper every week. Tumors derived from the injection of stable clones overexpressing the Bag-1 peptide were analyzed over a period of 9 weeks while tumors from cells transfected with the empty expression vector or expressing the N-terminal, the C-terminal and the ΔN-peptide were analyzed over 5 weeks. Tumor size was assessed measuring three perpendicular diameters according to the formula: V = (1/6) [π] (d1d2d3), where π is a mathematic constant and d1, d2 and d3 represent the three spatial dimensions (width, depth and height). Mice were euthanized by cervical dislocation and the tumors removed for further analysis.
Figure 4 The Bag-1 peptide inhibits prostate cancer cell growth in vivo. A. Stable clones of 22Rv.1 cells show reduced cell viability in vitro. Stable clones were seeded in a 96-well plate and the cell number in each well was estimated by measuring the ratio between the wavelength of excitation and emission 560/590 nm using the CellTiter-Blue™ proliferation assay. The bar charts represent the mean of at least four independent experiments ±SD (*p<0.05). B. Determination of the level of the Bag-1 expressed in the 22Rv.1 clones. Cellular extracts of 22v.1 stable clones were subjected to Western blot analysis. An anti-HA antibody was used to detect the peptide and an anti-β-actin antibody for equal loading control. C-D. The Bag-1 peptide reduces 22Rv.1 prostate tumor cell growth in vivo. Six-week old athymic nude mice were injected subcutaneously in both flanks with 5×10^6 cells of each stable clone. Tumor size was measured once per week using a caliper and expressed as tumor volume in mm^3. Shown are (C) the tumor volumes of clones transfected with empty expression vector and (D) clones expressing the Bag-1 peptide. Each point represents the mean volume and standard deviation of at least 5 to 10 tumors. E. Xenografts of stable clones expressing the Bag-1 peptide show increased apoptosis. Five-micron sections of formalin-fixed, paraffin-embedded tumor tissues were subjected to immunohistochemistry. Nuclei are stained blue-purple with hematoxylin while apoptotic cells detected with the TUNEL assay are stained brown. Representative sections of xenografts obtained from each 22Rv.1 stable clone were acquired with an Axioscop microscope (Zeiss). V: stands for empty vector expressing clone and P: peptide expressing clone.
Figure 5 An N-terminal unfolded fragment of the Bag-1 peptide is sufficient to reduce tumor cell growth. A. Schematic diagram of the Bag-1 peptide and its deletion mutants. The ubiquitin-like domain is represented in blue and the BAG domain in red. The numbers refer to the amino acid positions of the different domains. The amino acid residues are numbered following the numbering for Bag-1L. B. Prediction of the secondary structure of the Bag-1 peptide, showing an N-terminal β-hairpin from the ubiquitin-like domain (blue) and a C-terminal α-helix from the BAG domain (red). C. Normalized circular dichroism spectra of the Bag-1 peptides. 30 µM of the Bag-1 peptide were measured in 20 mM KHPO4 buffer, pH 6.8 (black line). Its α-helical content was estimated to be approximately 25% by deconvolution of the spectra (red line). 12 µM of the N-term peptide (green line) and 11 µM of C-term (blue line) were measured under the same conditions. D. ^1H^15N-HSQC NMR spectrum of ^15N-labeled Bag-1 peptide (202–269) in 20 mm KHPO4 buffer, pH 6.8, at 23°C. […] The Hδ and Hε side chain signals of asparagine and glutamine are connected by thin lines. […]

Molecule: ΔUbi peptide: Bag-1 peptide lacking the ubiquitin-like domain portion (Bag-1L 220–269) (KKNSPQEEVELKKLKHLEKSVEKIADQLEELNKELTGIQQGFLPKDLQAE; not fully specified)
- tumor growth inhibition in vivo: This effect was not seen

Molecule: C-terminal peptide: 28 C-terminal fragment of the Bag-1 peptide (Bag-1L 241–269) (EKIADQLEELNKELTGIQQGFLPKDLQAE; not fully specified)
- tumor growth inhibition in vivo: This effect was not seen

Molecule: N-terminal peptide: N-terminal 40 residues of the Bag-1 peptide (Bag-1L 202–241) (TPLSALGIQDGCRVMLIGKKNSPQEEVELKKLKHLEKSVE; not fully specified)
- tumor growth inhibition in vivo: reduces tumor growth in vivo; also recorded: growth inhibitory action of the peptides was also confirmed in xenograft models

B1: Bag-1 peptide: internal sequence of 68 amino acids of Bag-1 (Bag1-L 202–269), HA-tagged, expressed from pcDNA3 (peptide)
chain: TPLSALGIQDGCRVMLIGKKNSPQEEVELKKLKHLEKSVEKIADQLEELNKELTGIQQGFLPKDLQAE
modifications: also: HA tag, end not given here
- tumor volume (22Rv.1 cells expressing the peptide (P42, P25 and P29), 9 weeks, empty vector: average 1.2 cm^3 in 4–8 weeks): 0.4 cm^3
- Tumor weight, clone P25 (22Rv.1 clone P25, termination 7–9 weeks, mean and SD of 4–10 tumors, vector clones 1.24–1.73 g): 0.31 ± 0.14 g
- Tumor weight, clone P29 (22Rv.1 clone P29, termination 9 weeks, mean and SD of 4–10 tumors, vector clones 1.24–1.73 g): 0.42 ± 0.17 g
- Tumor weight, clone P42 (22Rv.1 clone P42, termination 9 weeks, mean and SD of 4–10 tumors, vector clones 1.24–1.73 g): 0.38 ± 0.20 g
- tumor condition (22Rv.1 peptide clone 25, mice euthanized earlier than 9 weeks): the tumors were necrotic
